Test results as given in article PMC3920835.

Target: Methylibium petroleiphilum PM1 dioxygenase (Mpe_A2762) (Methylibium petroleiphilum PM1) (UniProt A2SJH7)
Assay: SEC-MALS

Substance: Methylibium petroleiphilum PM1 dioxygenase (Mpe_A2762) (from UniProt A2SJH7 1-253) (enzyme)
- stoichiometry N: 2
